US20020146750A1 (published 2002)
Numbering of substitutions follows the chain as printed.

Tests used:
[1] = molecular target: T1, MUC1 15-mer Ac-PDTRPAPGSTAPPAL-NH2; test: SPR (BIAcore 2000), 1:1 Langmuir at steady state, 50 RU peptide; 15-mer surface; Fab
T1 construct: coated on a biotin chip
T1 peptide: Ac-PDTRPAPGSTAPPAL-NH2
Description: (§1) The selected PH1-IgG1 and the Fab PH1 antibodies were evaluated for their binding characteristics by surface plasmon resonance on a BIAcore 2000 apparatus (BIAcore AB, Uppsala, Sweden). A biotin chip was coated with a MUC1 15-mer, containing the minimal PH1 epitope, PAP (Ac-PDTRPAPGSTAPPAL-NH₂ (SEQ ID NO:40) (see Example 2, above), 50 RU and 320 RU) and 60-mer (NH₂-([…])₃-COOH (SEQ ID NO:8) (von Mensdorff-Pouilly et al., Tumor Biol., 19: 186-195 (1998), 50 RU) in HBS-EP buffer (Pharmacia) a surface, blocked with biotin (15 RU), was used as a negative control. The Fab PH1 and PH1-IgG1 were injected in HBS-EP buffer. To minimize rebinding of the antigen binding molecules, a speed of 30 μl/sec was used. Affinity calculation was performed with computer programs provided by BIAcore (BIAEvaluation-version3, BIACore AB). […] The affinity for the PH1 Fab antibody was calculated according to a 1:1 Langmuir stoichiometry at steady state (Chi²: 50.6). Because of the two binding places on the PH1-IgG1, the avidity was calculated as an apparent avidity constant using 1:1 Langmuir determination with mass transfer limitation (Chi²: 42).
(§2) The affinity of the antibody was determined using BIAcore. Affinities of the Fab PH1 were calculated to be an average of 1.4 μM for binding to the 15-mer and 60-mer MUC1 peptide antigen coated surfaces.

[2] = molecular target: T1, MUC1 15-mer Ac-PDTRPAPGSTAPPAL-NH2; test: SPR (BIAcore 2000), apparent avidity constant, 1:1 Langmuir with mass transfer limitation, low density surface; 15-mer, low density surface; IgG1 avidity
Description: as §1, §2

[3] = molecular target: T2, MUC1 60-mer peptide NH2-(…)3-COOH (biotinylated in the ELISAs and selections); test: ELISA, soluble Fab, biotinylated MUC1 60-mer; relative signal
T2 construct: also called biotinylated MUC1 60-mer
Description: (§3) Soluble Fabs were produced as described (Roovers et al., Br. J. Cancer, 78: 1407-16 (1998)). ELISAs were performed as described by Henderikx et al. (Cancer Res., 58: 4324-4332 (1998)), except the biotinylated MUC1 60-mer was used. The selected PH1 and the affinity-matured antibodies were evaluated for affinity by surface plasmon resonance (SPR) on a BIAcore 2000 apparatus (BIAcore AB, Uppsala, Sweden). Channels of a biotin chip were coated with a MUC1 15-mer, containing the minimal PH1 epitope, PAP, (Ac-PDTRPAPGSTAPPAL-NH₂, (SEQ ID NO:40) 50 RU or 320 RU) or a 60-mer (NH₂-([…])₃-COOH (i.e., containing three copies of SEQ ID NO:8 (von Mensdorff-Pouilly et al., Tumor Biol., 19: 186-195 (1998), 50 RU) in HBS-EP buffer (Pharmacia). One surface was blocked with biotin (15 RU) and used as a negative control. The antibodies were injected in HBS-EP buffer. To minimize rebinding of the antigen binding fragments, the flow speed was 30 μl/sec. Affinity calculation was performed with the BIA-evaluation software provided by the BIAcore. The affinities of the Fabs were calculated according to a 1:1 stoichiometry at steady state.

[4] = molecular target: T1, MUC1 15-mer Ac-PDTRPAPGSTAPPAL-NH2; test: SPR (BIAcore) Kd assay on MUC1 15-mer
Description: as §3, with “The” for “Soluble Fabs were produced as described (Roovers et al., Br. J. Cancer, 78: 1407-16 (1998)). ELISAs were performed as described by Henderikx et al. (Cancer Res., 58: 4324-4332 (1998)), except the biotinylated MUC1 60-mer was used. The”
(§4) The CDR3 variants were extensively tested in BIAcore for the kinetics of the MUC1 peptide interaction. […] Using this off-rate screening with Fabs in the periplasmic extract of E. coli cultures, the clones in Table 9 as well as many more were screened for improvement in off-rate. […] To get accurate measurements, a Kd assay on the BIAcore was used with the MUC1 15-mer (there was no difference in the kinetics of interaction when the MUC1 60-mer was used, data not shown). […]

[5] = molecular target: T2, MUC1 60-mer peptide NH2-(…)3-COOH; test: phage ELISA on MUC1 antigen (biotinylated MUC1 60-mer)
[6] = molecular target: T2, MUC1 60-mer peptide NH2-(…)3-COOH; test: SPR (BIAcore), MUC1 60-mer peptide antigen; the 3.5-fold end is tied to 5C8 by paragraph 206; best variant, 5C8; Fab on MUC1 peptide chip
Description: as §3, with “The” for “Soluble Fabs were produced as described (Roovers et al., Br. J. Cancer, 78: 1407-16 (1998)). ELISAs were performed as described by Henderikx et al. (Cancer Res., 58: 4324-4332 (1998)), except the biotinylated MUC1 60-mer was used. The”
as §4

B1: PH1 Fab antibody (Fab, V domains shown)
VH: QVQLVQSGGGLVQPGGSLRLSCAASGFTFRSNAMGWVRQAPGKGLEWVSGISGSGGSTYYADSVKGRFTISRDNSKNTLYLQMNSLRAEDTAVYYCAKHTGGGVWDPIDYWGQGTLVTVSS
VL: EIVLTQSPLSLPVTPGEPASISCRSSQSLLHSNGYTYLDWYLQKPGQSPQLLIYSGSHRASGVPDRFSGSVSGTDFTLRISRVEAEDVGVYYCMQGLQSPFTFGPGTKVDIKR
notes: Human Fab from a naive phage library; also called Fab PH1; WT-PH1
B1 gave a Kd [1] of 1400 nM.

B2: PH1-IgG1 (antibody, V domains shown)
VH: B1 VH
VL: B1 VL
notes: Fully human gamma-1/kappa IgG1 from CHO-K1 clone 7F; FITC-labeled or biotinylated in some assays; also called recombinant human MUC1-specific IgG1; PH1-IgG1-FITC
For B2, the Kd [2] was 8.3 nM.

B3: 7F9 (Fab, V domains shown)
VH: B1 VH with D109G
VL: B1 VL
notes: PH1 Fab variant; also called clone 7F9
For B3, the binding result [3] was “binds” and the “fold improvement of affinity over wild type PH1 Fab” value [4] was under 2 fold.

B4: clone 21 (unselected SPIKE library) (Fab, V domains shown)
VH: B1 VH with K98N, H99Q
VL: B1 VL
With B4 the “ELISA OD450” value [5] was 0.108 OD450.

B5: 10F9 (Fab, V domains shown)
VH: B1 VH with D106N, D109G, Y110H
VL: B1 VL
notes: PH1 Fab variant
B5: binds [3].

B6: clone 23 (unselected SPIKE library) (Fab, V domains shown)
VH: B1 VH with H99P, V104A
VL: B1 VL
With B6 the “ELISA OD450” value [5] was 0.373 OD450.

B7: 11B9 (Fab, V domains shown)
VH: B1 VH with K98R, D109N
VL: B1 VL
notes: PH1 Fab variant
B7: binds [3].

B8: 11D4 (Fab, V domains shown)
VH: B1 VH with I108M, D109A, Y110S
VL: B1 VL
notes: PH1 Fab variant
B8: binds [3].

B9: clone 20 (unselected SPIKE library) (Fab, V domains shown)
VH: B1 VH with K98S, G103R, V104G
VL: B1 VL
With B9 the “ELISA OD450” value [5] was 0.109 OD450.

B10: clone 25 (unselected SPIKE library) (Fab, V domains shown)
VH: B1 VH with G102V, D106H, D109Y
VL: B1 VL
For B10, the “ELISA OD450” value [5] was 0.315 OD450.

B11: clone 22 (unselected SPIKE library) (Fab, V domains shown)
VH: B1 VH with K98R, D109Y
VL: B1 VL
With B11 the “ELISA OD450” value [5] was 0.663 OD450.

B12: 11F4 (Fab, V domains shown)
VH: B1 VH with D109S, Y110S
VL: B1 VL
notes: PH1 Fab variant
B12: binds [3].

B13: 5C8 (Fab, V domains shown)
VH: B1 VH with G102R, D109G
VL: B1 VL
notes: PH1 Fab variant; also called clone 5C8
B13 was tested, and the Kd [6] was about 400 nM and the “fold improvement of Kd over wild type PH1 Fab” value [4] was 3.5 fold.

B14: 11C1 (Fab, V domains shown)
VH: B1 VH with G102E, D109K
VL: B1 VL
notes: PH1 Fab variant
B14: binds [3].

B15: 11F2 (Fab, V domains shown)
VH: B1 VH with K98I, G102A, D109R
VL: B1 VL
notes: PH1 Fab variant
B15: binds [3].

B16: 11F9 (Fab, V domains shown)
VH: B1 VH with A97T, D109N
VL: B1 VL
notes: PH1 Fab variant
B16: binds [3].

B17: 11G9 (Fab, V domains shown)
VH: B1 VH with D109G
VL: B1 VL
notes: PH1 Fab variant
B17: binds [3].

B18: 11F7 (Fab, V domains shown)
VH: B1 VH with G102V, I108M, D109N
VL: B1 VL
notes: PH1 Fab variant
B18: binds [3].
